{"source": "patent US10064909B2", "about": "“Compositions and methods for chronic use of a weight-gaining compound” (priority 2015, dated 2018)", "origin": "cited, not measured here", "settings": "in vivo; cited from earlier work", "note": "Ends that are not written are not given here."}
{"substance": "Ghrelin: hormone produced predominantly in the glandular stomach; endogenous ligand of the ghrelin receptor (GHS-R) (GSSFLSPEHQRVQQRKESKKPPAKLQPR; ends and bridges not checked; UniProt Q9UBU3 24-51, looked up)", "values": [{"measurement": "half-life in the blood", "value": "approximately ten minutes"}]}
